# Residue numbers refer to the chain shown, from its start. Names may count otherwise.
# T1: GFP-Rad55-Rad57 complex (His6-GFP-Rad55 and FLAG-Rad57) (S. cerevisiae, UniProt P38953 1-406; P25301 1-460)
# T1 sequence (looked up) 1: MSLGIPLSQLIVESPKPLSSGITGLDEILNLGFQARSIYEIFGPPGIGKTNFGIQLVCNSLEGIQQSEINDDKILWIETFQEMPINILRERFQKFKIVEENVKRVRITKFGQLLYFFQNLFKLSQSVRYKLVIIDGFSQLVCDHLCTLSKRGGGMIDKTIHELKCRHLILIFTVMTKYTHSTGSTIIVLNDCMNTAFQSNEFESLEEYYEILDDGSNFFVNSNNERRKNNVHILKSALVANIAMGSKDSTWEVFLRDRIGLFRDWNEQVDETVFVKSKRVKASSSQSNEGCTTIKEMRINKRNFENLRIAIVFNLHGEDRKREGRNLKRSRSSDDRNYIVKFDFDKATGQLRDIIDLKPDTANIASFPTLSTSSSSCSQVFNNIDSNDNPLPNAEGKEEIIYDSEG
# T1 sequence (looked up) 2: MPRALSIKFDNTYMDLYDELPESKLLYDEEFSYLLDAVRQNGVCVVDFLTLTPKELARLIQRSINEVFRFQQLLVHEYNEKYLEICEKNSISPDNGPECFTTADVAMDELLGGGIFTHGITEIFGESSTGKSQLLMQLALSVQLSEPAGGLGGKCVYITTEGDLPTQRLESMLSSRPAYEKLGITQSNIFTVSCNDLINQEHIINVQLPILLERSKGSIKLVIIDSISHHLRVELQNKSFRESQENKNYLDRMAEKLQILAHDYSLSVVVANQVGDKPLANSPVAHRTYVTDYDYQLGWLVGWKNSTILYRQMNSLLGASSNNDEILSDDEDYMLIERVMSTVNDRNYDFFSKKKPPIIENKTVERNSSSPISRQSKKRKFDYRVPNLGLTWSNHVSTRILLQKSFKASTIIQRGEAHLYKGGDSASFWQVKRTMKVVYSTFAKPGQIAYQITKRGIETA
# B1: Hed1-GFP (natural protein, S. cerevisiae, UniProt Q03937 1-162, looked up)
# chain: MQQRSNRRSCSYIPLGVHNNAEKSLCTEVAPARKNKRSITTSPIVNINVVERRLFNLELEKQQLRAKNLSENTGGGSPNGGAYLDAKKGVREQDQYQGGPSKELDRLQPPPSMKKSPPRKKKSLKDLIYETNKTFYQVDSNKVKYKVGLSKKQLLPSKTVDN
# B2: Rad51 (natural protein, S. cerevisiae, UniProt P25454 1-400, looked up)
# chain: MSQVQEQHISESQLQYGNGSLMSTVPADLSQSVVDGNGNGSSEDIEATNGSGDGGGLQEQAEAQGEMEDEAYDEAALGSFVPIEKLQVNGITMADVKKLRESGLHTAEAVAYAPRKDLLEIKGISEAKADKLLNEAARLVPMGFVTAADFHMRRSELICLTTGSKNLDTLLGGGVETGSITELFGEFRTGKSQLCHTLAVTCQIPLDIGGGEGKCLYIDTEGTFRPVRLVSIAQRFGLDPDDALNNVAYARAYNADHQLRLLDAAAQMMSESRFSLIVVDSVMALYRTDFSGRGELSARQMHLAKFMRALQRLADQFGVAVVVTNQVVAQVDGGMAFNPDPKKPIGGNIMAHSSTTRLGFKKGKGCQRLCKVVDSPCLPEAECVFAIYEDGVGDPREEDE
# B3: Rad51-K191R (natural protein, S. cerevisiae, UniProt P25454 1-400, looked up)
# chain: B2 chain with K191R
# How the values were obtained:
# Rad51 = target: B2; assay: single-molecule ssDNA curtain
# [1] = target: T1, GFP-Rad55-Rad57 complex (His6-GFP-Rad55 …); assay: single-molecule ssDNA curtain
Binder,binding result (Rad51),koff [1] [s⁻¹]
B1,binds,–
B2,–,0.00758
B3,–,0.0058
